The chains are these.
B1: TREM2 R46D (receptor)
chain: HNTTVFQGVAGQSLQVSCPYDSMKHWGDRKAWCRQLGEKGPCQRVVSTHNLWLLSFLRRWNGSTAITDDTLGGTLTITLRNLQPHDAGLYQCQSLHGSEADTLRKVLVEVLADPLD
modifications: biotin on the C-terminal BirA biotinylation sequence
B2: TREM2 R122E (receptor)
chain: B1 chain with D28R, R104E
modifications: biotin on the C-terminal BirA biotinylation sequence
B3: TREM2 R122D/K123D (receptor)
chain: B1 chain with D28R, R104D, K105D
modifications: biotin on the C-terminal BirA biotinylation sequence
B4: TREM2 L75D (receptor)
chain: B1 chain with D28R, L57D
modifications: biotin on the C-terminal BirA biotinylation sequence
B5: TREM2 T85D (receptor)
chain: B1 chain with D28R, T67D
modifications: biotin on the C-terminal BirA biotinylation sequence
B6: TREM2 W44D/L69D/L71D (receptor)
chain: B1 chain with W26D, D28R, L51D, L53D
modifications: biotin on the C-terminal BirA biotinylation sequence
B7: TREM2 L69D/L71D (receptor)
chain: B1 chain with D28R, L51D, L53D
modifications: biotin on the C-terminal BirA biotinylation sequence
B8: TREM2 W78D (receptor)
chain: B1 chain with D28R, W60D
modifications: biotin on the C-terminal BirA biotinylation sequence
B9: TREM2 R77D (receptor)
chain: B1 chain with D28R, R59D
modifications: biotin on the C-terminal BirA biotinylation sequence
B10: TREM2 WT (receptor, human, UniProt Q9NZC2 19-230, looked up)
chain: HNTTVFQGVAGQSLQVSCPYDSMKHWGRRKAWCRQLGEKGPCQRVVSTHNLWLLSFLRRWNGSTAITDDTLGGTLTITLRNLQPHDAGLYQCQSLHGSEADTLRKVLVEVLADPLDHRDAGDLWFPGESESFEDAHVEHSISRSLLEGEIPFPPTS
modifications: biotin on the C-terminal BirA biotinylation sequence
notes: TREM2, human; also called triggering receptor expressed on myeloid cells-2; source: Expi293F cells, purified, enzymatically biotinylated using BirA
B11: TREM2 R62H (receptor, human, UniProt Q9NZC2 19-230, looked up)
chain: B10 chain with R44H
modifications: biotin on the C-terminal BirA biotinylation sequence
notes: TREM2, human, AD risk variant; As m1 with the substitution; source: Expi293F cells, purified, enzymatically biotinylated using BirA
B12: TREM2 D87N (receptor, human, UniProt Q9NZC2 19-230, looked up)
chain: B10 chain with D69N
modifications: biotin on the C-terminal BirA biotinylation sequence
notes: as for B11
B13: TREM2 R47H (receptor, human, UniProt Q9NZC2 19-230, looked up)
chain: B10 chain with R29H
modifications: biotin on the C-terminal BirA biotinylation sequence
notes: as for B11
B14: TREM2 T96K (receptor, human, UniProt Q9NZC2 19-230, looked up)
chain: B10 chain with T78K
modifications: biotin on the C-terminal BirA biotinylation sequence
notes: as for B11
B15: TREM2 R76D (receptor)
chain: B1 chain with D28R, R58D
modifications: biotin on the C-terminal BirA biotinylation sequence

Among the data in article PMC11419269 (Research Square, 2024) are Kd values, retold here.

As usually defined, the Kd is a measure of binding affinity in units of concentration. A low value points to a tighter complex.

Residue numbers refer to the chain shown, from its start. Numbers in names are those of the source.

In the first assay the target is T1, Human IL-34 (19–241) (human, UniProt Q6ZMJ4 19-241).
T1 construct: IL-34, human, residues 19-241, cloned into pHLsec; the oligomeric state was not measured here; source: Expi293F cells, secreted, purified from the media using NiNTA chromatography
T1 sequence (looked up): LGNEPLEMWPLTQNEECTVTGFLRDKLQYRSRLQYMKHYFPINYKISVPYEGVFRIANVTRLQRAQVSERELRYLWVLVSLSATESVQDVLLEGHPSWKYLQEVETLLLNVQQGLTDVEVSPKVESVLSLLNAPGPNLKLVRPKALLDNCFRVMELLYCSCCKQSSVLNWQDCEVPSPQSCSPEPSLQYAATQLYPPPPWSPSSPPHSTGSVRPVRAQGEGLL
Description: BLI; biotinylated TREM2 WT and variants immobilised on SA biosensors; IL-34 62.5 – 1000 nM in PBS with 0.1% BSA and 0.005% Tween-20; 1:1 kinetic fits. The following applies: both partners purified. (In BLI a coated tip is dipped into the sample, and binding shifts an interference pattern.)
Take B1: the Kd stood at 18 ± 0.3 nM.

In the case of B2, the Kd came to 29.4 ± 0.4 nM. Same read-out and setting: the figure for B3 is 18.5 ± 0.3 nM; for B4 it is 36.6 ± 0.9 nM; for B5 it is 21.5 ± 0.6 nM. The molecule B6 gave a Kd of 25.8 ± 0.3 nM.

As for B7, the Kd was determined as 20.2 ± 0.3 nM. This Kd and that of the molecule before are within 1.5-fold of each other.

Turning to B8, the Kd is 17.2 ± 0.4 nM. The molecule B9 showed a Kd of 114 ± 4 nM. On the same count and under the same terms, the figure for B10 is 16.5 ± 0.2 nM; for B11 it is 75 nM. In turn, B12 yielded a Kd of 28.4 ± 0.5 nM.

In turn, B13 gave a dissociation constant (Kd) of 79.8 ± 2.4 nM. Same read-out and setting: the figure for B14 is 23.7 ± 0.4 nM.

A further assay addresses T2, complement C1q.
T2 construct: source: bought: Complement Technology (Cat#A099); copies: 6 + 6 + 6
Description: BLI; biotinylated TREM2 WT and variants immobilised on SA biosensors; C1q 62.5 – 1000 nM in PBS with 0.1% BSA and 0.005% Tween-20; 1:1 kinetic fits. The conditions noted are these: both partners purified.
Consider B15, for which the affinity, expressed as Kd, was 13800 ± 4860 nM. On the same count and under the same terms, the figure for B3 is 820 ± 40 nM; for B4 it is 110 ± 10 nM. In turn, B5 showed a Kd of 110 ± 10 nM.
